{
  "source": "the DeepSol protein solubility set",
  "test": "soluble on expression in E. coli; label from the status in PepcDB or PDB records",
  "data": [
    {"sequence": "MGSDKIHHHHHHMGIINAAFRLSQIERSIINKECHRTTCSLMDFIRDYTVVATDLEEAVQLRSTYNSLRRLGESDITEEDAVNILQQGTVIFNRISAYSYEELERKLVANYPNTPVLNAVDVVKKYSQKGNFKLGPVSTVLNAGEITGIVGENGNGKTTLLRILARLLSYDEGVLQYQFDGQETTEDYLIKHRIAYIPQRLESWQGTLRENLHYAATIHNIVGEENEKIVEFVIHRMGLSNFAHLGWKELSSGYKLRFELAKMLVWSPRILVLDEPLANLDINAQEWILQDFKSMASSIKNPVSVILSSQQLHEVEHVADNIIFLRNGRCDYSGAMNAFMQERDENVFELSGNFTSKELQPIFSNHAVQFSESGITIIVRTNTAITAADVLSMLISNGYTIKYFRDISTSTKQLFQL", "values": [
      {"measurement": "soluble on expression in E. coli", "result": "not soluble"}
    ]},
    {"sequence": "AHHHHHHGSNAVEIISREISPTLDIQTKILEYMTDFFVKEGFKWLLPVIISPITDPLWPDPAGEGMEPAEVEIYGVKMRLTHSMILHKQLAIAMGLKKIFVLSPNIRLESRQKDDGRHAYEFTQLDFEVERAKMEDIMRLIERLVYGLFRKAEEWTGREFPKTKRFEVFEYSEVLEEFGSDEKASQEMEEPFWIINIPREFYDREVDGFWRNYDLILPYGYGEVASGGEREWEYEKIVAKIRKAGLNEDSFRPYLEIAKAGKLKPSAGAGIGVERLVRFIVGAKHIAEVQPFPRIPGIPAVI", "values": [
      {"measurement": "soluble on expression in E. coli", "result": "soluble"}
    ]},
    {"sequence": "MGSDKIHHHHHHMLHKNDYRLGIDVGGTNTDAAILDADLRCIATAKFPTSMDIYSGIERVIAAVLAQSGIEPQHICYAMLGTTQCTNAIVERKGLDRVGLLRLSLPSSDSVPPLFGWDDEWQKTLGEHFYQLHGGYEFDGREIHPVLLNEVLAVCDTMRGHVDSVAICGVFSPVNNDQELQVAQWVNAALPDVSLSLSHRIGSTGLLERENATILNASLQSTANRFVNGFIQALVRHGIKATPFFGQNDGTLMSESMVKQYPILTMACGPTNSIRGACHLSGLDNALIIDVGGTTTDIGVLVNGFPRESAIAVEVGDVRTNFRMPDIISIGIGGGTCVRQSQNGTLTLGPDSVGYRLLEQSVSFGGETLTLNDIMLQLQRERWTSSLSHSLPELDKALCLEAYRQMIDKVESAIDRIKSSSAAIPAVLVGGGSILLPDVLSGVSQVMRPQNFDAANAVGVALGKVGAQIERVVKMSDNDREKIKSELQQQTICLAEETGAMPGSVEIIDYQEIPLAYLPGNAVQVKIKAAGNLA", "values": [
      {"measurement": "soluble on expression in E. coli", "result": "not soluble"}
    ]},
    {"sequence": "MCMHNSGFNLNLPPWVIASRHFNDNPHPLEVQGVRLANRFLFERLDAIASPDERGTVFNDYMSVKFQLHLWQEQATPSARKSLKNSYLRYLRGWMMDSNSVEGAVLKGWVESRMGIVPSFHKARITGIHTESYYGYVVDRTAGSKRTSAINSQLDILYEFCQYELARRFPGELWVTLYRGTFAADDYDVVEELGRREKIIRFNNLVSFTSHEERAWEFGSTVWEIRAPLSKVFFFDDLLPGSILKGEGEYLVIGGEYRVRRVMCTVLEHHHHHH", "values": [
      {"measurement": "soluble on expression in E. coli", "result": "not soluble"}
    ]},
    {"sequence": "MGSDKIHHHHHHMSDTDKQAFLTSVSSKEQVKKVIEPRKVTKCPHCQSTHFVKNGKDCGNQRFLCRDCKKSFVEQTGTILYNTQKDIEVWEKYIHCMIEKYPLRKCAEICKINLATAFTWRHKILDALQNMMNEVELDGIVQADETYSTISYKGHHKNFNLPRPAHKRGTRATKRGISKEQVCVPCGINLDGKSVARISNLGKPSLKNIN", "values": [
      {"measurement": "soluble on expression in E. coli", "result": "not soluble"}
    ]},
    {"sequence": "MGSDKIHHHHHHMGQSEVNFYQQEVVELLKQVIEPNLKNDIVSLGMVRNLRIVDDYVYLRLYIGSHQQQLQTEVEAKLSALSWCKKTYIQICTIPGVKITLGISSGKGGVGKSTTAVNIAAALSLQGAKVGLLDADVYGPNVPQMLGLGQADVEVIQTPTGEKFLPLEVQGIKLMSVGLLAEENRPLAWRGPVLHKIITQFINDVEWGELDYLLIDLPPGTGDAQITIIQESPICGVILVTTPQQVAVADVRRNIYMFRQVGVPVLGIVENMSYLICGDCGSRTYIFGSGGGEQLATELQAPLLGQIPIDQRICSGGDSGNPIAISEQTSPASEVFRNIAIAIGLSFP", "values": [
      {"measurement": "soluble on expression in E. coli", "result": "not soluble"}
    ]},
    {"sequence": "MAHHHHHHMKEKYTITPLARRTPNGVLTQVLTEARREAAERLRGMQEMKFTICTDIEEVLFKGRVHVNEMRLNDFLTREPDGRGVVDTNRDVLLEEFFKDPTKYIRDKGALNEIQAFGHYLSMKRAVKGEVIFDEDIRELCDRVSTTYRGGHWLLRR", "values": [
      {"measurement": "soluble on expression in E. coli", "result": "not soluble"}
    ]},
    {"sequence": "MLQIEKIVSNKGNDLSLRWNLLKKIDHFQCLTSLTRLNLNDNQIEKLENLETLVNLVFLDVSYNRITKIEGLSELINLEELHLVHNKIITIEGLETNTAMKYLEFGDNRIQKMENLSHLVNLERLFLGANQIRKIEGLDGMAQLKELSLPGNALQIIEGLDTLSGLKSISLAQNGIRKIDGLSGLTNLKSLDLNDNIIEKLENVEQFKGISSLMIRKNKLNCWQDVRQLKKLENLTVLTMEMNPLYSSDYTYRNRVKEILPDVKLLDGFPIFWVQGDPYQPIPEEFYEMGDVYVTSPTFVGHDTGSILAIDCHPSGKKFITCGQKARTSNGLVVVWNAEPVLDKKKASNENVPKLLFQVESQSQSNSCRWSPDGKRFAFGSDDSSVSVWEYVGLINSMGSITGGAQNVERYKECCVLRGHSMEVLTVEWSPNGKYLASGSIDYRIIIYNARKLPDRITVLNDIQLPVKGLSWDPIGKYLASLEGDKKLRFWATDSWQCVKSVTEPFESNIEETMLTRLDWSPDGKYLMTPAAVRSGKPLIKLIQRQTWKSDQFLAGHHKGTTCVRAMPRLIEANLKNGKRMQLTCAAVGSRDKSISIWVFPGTLKPLFVINNIFNHTVMDFAWCGRNLLACSQDGTVKVIHLSESVIGEMISNEAMSDLCYQIYSIRPPRYELTDKEEDESQDSFNLSDLSSSANNASFVTCPEDVLIKRKKLVAAQQSSDIQLTKSMEDNSKENESKNSEKTMMEERNKQIDVRKDGKRRIQPVFCGTTTADPMTSLSSEGKKTVAPPPAKRKALAPAVPAKKGEVDLEDSSDSDDDDEEEEEDMEISDIESVRNKKRKVPATTSQPMLALDLKKPALRPMEPKSLKTQEGTVLMEAPEQQPKLSQHVVDRKGMFVEIDNRWKHGGVETTQIKLIKKKQQTAENEDDMMDGERRVNHECLWMAVLGSPVIIVAANKHNVVLGCGDKCLRVYRTFCGTHIVSLRLDSLPVLIGVTEHAAYALTENGRLSTWNLKLGKAVVTRQPLFDCVEASTDNSLISADVSETGVPLIVFSNGSIFTFNVSLSCWIQAITTNVLGRLTSPISDAQLSCSNGTTNSAGPLVRLLKRMRKQATAPGVAPQVVKAVKESQLEQLLHCAEQLGNPQDYQTMLMLYVETLCEGGSEKKLKNILNDLSRSGAPMQVCGLRRSALYDDVTRMIKLKQPAIAARIVAGVAASTTTKSLF", "values": [
      {"measurement": "soluble on expression in E. coli", "result": "not soluble"}
    ]},
    {"sequence": "MAHHHHHHMPQVDLVKLLQICVNGALAAQQYILLDLIQLRSLEVSRRDVCIADLDQQEIARLRARLKAAVSVDVKGKLEYKEGGSVDDLVTTADVVTQGLMERLLAEAFPDTPFTIIGEEEATTTDAIKIQVERCVEAFRDVNAVAPLQKELEAHASSDSRHVSASTVEELRARVGVFIDPIDATSCFVDGTWGAPMTLVGITVDGVPVAGVSNRFFYSTVDDLTSGGNAGCTGLSYVWNDPSAGPFIVHEGRLATPLWSLGRKTTSNLAMLRVIRSGTTSNKRFEQLLARLQPVEPRSARGAGNKLMLLVVSMLAASDGAAAAACDVFLAPPNSISKWDTCAAHAFLLALGGDMRTLRGELIRYPLRGTTNLKTLPDGVVGLTRWSMTEGLRRLGWQ", "values": [
      {"measurement": "soluble on expression in E. coli", "result": "not soluble"}
    ]},
    {"sequence": "MPHAPQEQIAPLLTTEGWELLASLGPYREADSFSVNAHLRKAGHSPELVAAVLTQSRLRTRAEAKFGEFARQMLFTQAGLEQATRLNVAARHAERFAKAGISHVADLGCGLGADSMAMASMDISVTAVEMDETTAACATINLMPFPHATVVHADATSVELDGMDGVWLDPARRTTSTSGTKRIWDPEAFSPPLSFVERLAATGRAIGVKMGPGIPHDSVPPGCEAQWVSVGGDVTEVTLWFNAVARPGVRRAALVIGNQGAAEITSGADFDGGPVAAVGPVEGFLYEPDGAVIRAGLVADVAGRLGGHLVDEHIAYICAPELHDTPFARAFKVLEVMPYNVKALKAWVKNQGITVLDIKKRGTAVTPEELRKQLLPAKPVKGKDAKTATLVLTRIGEERVAVVVEPVTA", "values": [
      {"measurement": "soluble on expression in E. coli", "result": "soluble"}
    ]},
    {"sequence": "MAGAITHDHAAAAQGRQGGPLIVTEDVELLDDLLRLCAAAGARPEVHHTVPDGRGTWEAAPLVLVGDDAARRVRGAARRRGVVLVGRDQDDSGVWRRAVEIGADHVLLLPDGEQWLVDRIADVAEGVGRPALTVGVIGGRGGAGASTLACALAVTSARQGRRTLLVDADPLGGGLDVLLGGETAEGLRWPAFAASRGRVGGGALEESLPELHALRVLSWDRGDAVAVPPQAVRAVLAAARRRGGAVVVDLPRRVDEGAAEALAQVDLGVLVVPAELRAIAAAARVASAAGMVLGDLRVAVRGPYAPGLDDREVARLLGLPLLGEVPAEPPVPDGGVPPGGAARGPLARFCAVFWDRALVEAGGVLEHHHHHH", "values": [
      {"measurement": "soluble on expression in E. coli", "result": "not soluble"}
    ]},
    {"sequence": "MGSDKIHHHHHHMSIDIDIIKARAKNEYRLSKVRGEAMISVRIPGGILPAHLLTVARDIAETWGNGQIHLTTRQKLAMPGIRYEDIDNVNAALEPFLREIEIELCDVQVEDTKAGYLAIGGRNIVACQGNRICQKANTDTTGLSRRLEKLVYPSPYHLKTVIVGCPNDCAKASMADLGIIGVAKMRFTADRCIGCGACVKACSHHAVGCLALKNGKAVKEESACIGCGECVLACPTLAWQRKPDQLWQVRLGGRTSKKTPRVGKLFLNWVTEDVIKQVIVNLYEFEKEMLGGKPIYLHMGHLIDKGGYLRFKERVLRGVQLNPEAMVAERIYWAEDESVARMHLKPAGH", "values": [
      {"measurement": "soluble on expression in E. coli", "result": "not soluble"}
    ]},
    {"sequence": "MSLDINQIALHQLIKRDEQNLELVLRDSLLEPTETVVEMVAELHRVYSAKNKAYGLFSEESELAQTLRLQRQGEEDFLAFSRAATGRLRDELAKYPFADGGFVLFCHYRYLAVEYLLVAVLSNLSSMRVNENLDINPTHYLDINHADIVARIDLTEWETNPESTRYLTFLKGRVGRKVADFFMDFLGASEGLNAKAQNRGLLQAVDDFTAEAQLDKAERQNVRQQVYSYCNEQLQAGEEIELKSLSKELAGVSEVSFTEFAAEKGYELEESFPADRSTLRQLTKFAGSGGGLTINFDAMLLGERIFWDPATDTLTIKGTPPNLRDQLQRRTSGGNLEHHHHHH", "values": [
      {"measurement": "soluble on expression in E. coli", "result": "not soluble"}
    ]},
    {"sequence": "SEASFVQTTMALGLSSKKASSRNVAVERKNLITVCRFSVKTLLEKYTAEPIDDSSEEFVNFAAILEQILSHRFKACAPAGPVSWFSSDGQRGFWDYIRLACSKVPNNCVSSIENMENISTARAKGRAWIRVALMEKRMSEYITTALRDTRTTRRFYDSGAIMLRDEATILTGMLIGLSAIDFSFCLKGEVLDGKTPVVIDYTPYLKFTQSYDYLTDEEERHSAESSTSEDNSPEHPYLPLVTDEDSWYSKWHKMEQKFRIVYAQKGYLEELVRLRESQLKDLEAENRRLQLQLEEAAAQNQREKRELEGVILELQEQLTGLIPSDHAPLAQGSKELTTPLVNQWPSLGTLNGAEGASNSKLYRRHSFMSTEPLSAEASLSSDSQRLGEGTRDEEPWGPIGSSEPN", "values": [
      {"measurement": "soluble on expression in E. coli", "result": "soluble"}
    ]},
    {"sequence": "MSITHQPANLTLAQIQQMIGGVMLLSQHSPLHRRYVVAEWLQRILPAFELNQFCYYEDEHGRPIAFCNWAFVSEQIRDELLSGVREISPSDWRSGQQIYIPEMIAPFGHGREVVNDLRRRVFLPWQGQKVCTVRGKVDAQNDRCIRKVQWFSI", "values": [
      {"measurement": "soluble on expression in E. coli", "result": "not soluble"}
    ]},
    {"sequence": "MMKKIKILSLLVCLIALFTACHDEEDKTNYGSRTVLVYIAGDNSLSRFASEDLNEMIEGMQSVDDNHNNLLVYMDKGSNPKLIRLRKDKDVVVQDVIATYDAQNSVDVDVMKNVFTTAFSHYPADSYGVVFWSHGDGWLPYNNPSTRWWGQDTGNGDNRMNIPDLNEALSVAPHFDFILFDACYMQSVEVVYQLRNRADYFIGSPTEIPGPGAPYEVVVPALFAVNSPAVSIAENYYSVYAKKYNSTGAGISNENWTGGVSISVIKSSELSALAAATRDVLQTAVSMQQSHNIDISSILCYDPLRENNYHDLMGLMQSIQGNSQAFNHYKEMYKNAVIWKNTTDNNYCTYSSGYGKMVSMDGFEGVSTYILRENNSSQEKYYRQFVEWYSAADWDSVDWLEHHHHHH", "values": [
      {"measurement": "soluble on expression in E. coli", "result": "not soluble"}
    ]}
  ]
}
